Laboratory results: patent publication US20130045219A1 (UCB, published 2013)
Like-named read-outs stand apart in the source and are kept apart here. Each block holds one binder with its values, some of them ahead of it.

B5: soluble human CD154 protein (extracellular domain) (ligand)
chain: GDQNPQIAAHVISEASSKTTSVLQWAEKGYYTMSNNLVTLENGKQLTVKRQGLYYIYAQVTFCSNREASSQAPFIASLCLKSPGRFERILLRAANTHSSAKPCGQQSIHLGGVFELQPGASVFVNVTDPSQVSHGTGFTSFGLLKL
notes: also called sCD154; recombinant extracellular domain of human CD154

Key:
[1] = target: T1, CD154 expressed on D1.1 Jurkat cells (UniProt P29965 1-261, limits assumed); experiment: cell-based or functional assay
T1 sequence (looked up): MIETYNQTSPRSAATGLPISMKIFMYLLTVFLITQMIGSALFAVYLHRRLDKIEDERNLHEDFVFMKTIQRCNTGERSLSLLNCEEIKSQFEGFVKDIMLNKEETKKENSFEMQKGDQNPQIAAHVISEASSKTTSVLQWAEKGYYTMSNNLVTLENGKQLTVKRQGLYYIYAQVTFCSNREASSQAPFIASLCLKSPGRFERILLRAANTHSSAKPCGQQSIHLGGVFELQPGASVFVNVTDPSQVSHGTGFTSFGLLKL

[2] = target: T1, CD154 expressed on D1.1 Jurkat cells; experiment: flow cytometry: inhibition of the binding of hCD40-mFc-PE to CD154-expressing D1.1 Jurkat cells by serially diluted chimaeric Fab' (Example 5)
Protocol: (§1) A flow cytometry-based assay was used to assess the binding of labeled CD40 to CD154-expressing D1.1 cells. D1.1 Jurkat cells (American Type Culture Collection) were maintained in RPMI 1640 medium (Gibco, 31870-025)) containing 10% (v/v) fetal calf serum (FCS), 2 mM glutamine (Invitrogen, 23030024), 1 mM sodium pyruvate (Invitrogen, 11360-039), 1% (v/v) D-(+)-glucose (Sigma, G8769) & 10 mM HEPES (Sigma, H0887). At time of assay, 100,000 D1.1 cells were incubated in 100 μL RPMI 1640 medium+10% FCS, in the presence or absence of serially diluted anti-CD154 antibody for 15 minutes at room temperature. 5 μL of a 1:75 dilution of hCD40-mFc-PE (Alexis Corp, ANC-504-050) was then added and incubated for a further 30 minutes at room temperature. After washing twice in phosphate-buffered saline (PBS) containing 1% (w/v) bovine serum albumin (BSA fraction V, Serologicals Proteins Inc, 81-068-5) and 0.02% (w/v) sodium azide (BDH, 103692K), cells were resuspended in 200 μL PBS/1% BSA/0.02% sodium azide and flow cytometry performed on a Becton Dickinson FACScan. The values for geometric mean fluorescence (FL2) were assessed in all cases.

[3] = target: B5; experiment: Biacore (SPR): antibody or Fab' captured on immobilized anti-human IgG (Fc- or Fab'-specific) F(ab')2, recombinant extracellular domain of human CD154 titrated over it (Example 4); chimaeric Fab'
Protocol: (§2) Catalogue Number: BR-1001-88, Biacore AB, Uppsala, Sweden. Buffer stored at 4° C. Immobilization buffer is Acetate 5.0 (being 10 mM sodium acetate pH 5.0). Catalogue number: BR-1003-51, Biacore AB, Uppsala, Sweden. Buffer stored at 4° C. Ligand capture: Affinipure F(ab′)₂ fragment goat anti-human IgG, Fab′ fragment specific (Catalogue number: 109-006-097) or Fc fragment specific (Catalogue number: 109-006-098), Jackson ImmunoResearch Inc (Pennsylvania, USA). Reagents stored at 4° C. […] Analyte: Recombinant extracellular domain of human CD154. Material was prepared at 2 mg/mL (40 μM) in phosphate-buffered saline, stored at 4° C., and diluted in HBE-EP running buffer for the assays. […] Regeneration Solution: 40 mM HCl prepared by dilution with distilled water from an 11.6 M stock solution (BDH, Poole, England. Catalogue number: 101254H). 5 mM NaOH prepared by dilution with distilled water from a 50 mM stock solution. Catalogue number: BR-1003-58, Biacore AB, Uppsala, Sweden. Assay Method: BIA (Biamolecular Interaction Analysis) was performed using a Biacore® 3000 (Biacore AB). Affinipure F(ab′)₂ fragment goat anti-human IgG, Fc- or Fab′-fragment specific (Jackson ImmunoResearch) were immobilized on a CM5 Sensor Chip via amine coupling chemistry to a capture level of ≈6000 response units (RUs). HBS-EP buffer (10 mM HEPES pH 7.4, 0.15 M NaCl, 3 mM EDTA, 0.005% Surfactant P20, Biacore AB) was used as the running buffer with a flow rate of 10 μl/min. Anti-CD154 antibodies or Fab fragments were used at concentrations such that, once captured by the immobilized anti-human IgG-Fc (or anti-human IgG Fab′) surface, gave a signal of ≈200 RUs. Human CD154 was titrated over the captured antibody, at various concentrations. 90 μL of CD154 was injected over the surface (association phase), followed by a 240 second dissociation phase, all at a flow rate of 30 μl/min. […] Background subtraction binding curves were analyzed using the BIAevaluation software (version 3.2) following standard procedures. Kinetic parameters were determined from the fitting algorithm.

[4] = target: T1, CD154 expressed on D1.1 Jurkat cells; experiment: cell-based or functional assay; remark: listed apart in the source
CD40:sCD154 complex = target: T2, CD40:sCD154 complex (human, UniProt P25942 21-193, limits assumed); experiment: Biacore (SPR): CD40hFc captured, ECD bound, then buffer or Fab injected; concentration not given (Example 10)
T2 construct: also called CD40:CD154 complex; not shown: human Fc (hFc)
T2 sequence (P25942 21-193 limits assumed, one chain of several): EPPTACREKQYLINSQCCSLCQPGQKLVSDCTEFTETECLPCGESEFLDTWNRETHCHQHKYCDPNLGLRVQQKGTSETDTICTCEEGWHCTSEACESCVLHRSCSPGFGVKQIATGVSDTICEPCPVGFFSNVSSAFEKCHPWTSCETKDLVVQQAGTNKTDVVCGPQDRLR

Myc-tagged CD154 = target: T3, Myc-tagged CD154 (UniProt P29965 116-261, limits assumed); experiment: ELISA: Myc-tagged CD154 captured on anti-Myc antibody 9E10, biotin 342 Fab' titrated, streptavidin-HRP detection (Example 14)
T3 construct: Captured on the ELISA plate by anti-Myc antibody 9E10; The order of tag and CD154 is not known; also called CD40L; not shown: Myc tag
T3 sequence (looked up): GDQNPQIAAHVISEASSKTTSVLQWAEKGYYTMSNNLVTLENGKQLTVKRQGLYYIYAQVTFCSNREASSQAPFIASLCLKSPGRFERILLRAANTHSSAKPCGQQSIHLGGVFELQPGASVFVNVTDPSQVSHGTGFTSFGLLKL
Protocol: In this assay, anti-Myc antibody 9E10 was coated onto an ELISA plate. Myc-tagged CD154 was captured by this antibody. […] The plate was washed and the amount of biotinylated 5c8 Fab bound was determined using streptavidin HRP as a secondary. The signal was graphed and fit using a either a one site binding hyperbola or a two site binding hyperbola curve fit in Prism software (Graph Pad).
A titration of biotin 5c8 Fab′ on CD154 to determine the appropriate concentration for cross-blocking analysis was also performed (FIG. 29B).

[5] = target: T1, CD154 expressed on D1.1 Jurkat cells; experiment: flow cytometry: inhibition of the binding of hCD40-mFc-PE to CD154-expressing D1.1 Jurkat cells by serially diluted antibody (Example 5)
Protocol: as §1

[6] = target: B5; experiment: Biacore (SPR): antibody or fragment captured on immobilized anti-human IgG (Fc- or Fab'-specific) F(ab')2, recombinant extracellular domain of human CD154 titrated over it (Example 4)
Protocol: as §2

[7] = target: T1, CD154 expressed on D1.1 Jurkat cells; experiment: flow cytometry competition binding assay: serially diluted antibody against biotinylated 342 Fab on CD154-expressing D1.1 Jurkat cells, streptavidin-R-phycoerythrin detection (Example 6)
Protocol: A flow cytometry-based assay was used to assess the binding of anti-CD154 antibody to CD154-expressing D1.1 cells. D1.1 Jurkat cells (American Type Culture Collection) were maintained in RPMI 1640 medium (Gibco, 31870-025) containing 10% (v/v) fetal calf serum (FCS), 2 mM glutamine (BioWhittaker, 17-605E) and […] (Mediatech, 30002107). […] The cells were washed three times in FACS buffer with centrifugation at 290×g for 3 minutes in between washes. A 1:500 dilution of streptavadin-R-phycoerythrin conjugate (Jackson Immunoresearch, 016-110-084) in […] FACS buffer was added and the cells were incubated for one hour at 4° C. The cells were washed once and fixed in PBS with 3% formaldehyde at room temperature for 10 minutes. The cells were resuspended in FACS buffer and run on a FacsCalibur (BD). The values for geometric mean fluorescence (FL2) were assessed in all cases.

[8] = target: B5; experiment: Biacore; purified Fab captured on the chip, human CD154 extracellular domain as analyte
[9] = target: T4, CD40hFc (human CD40 fusion protein) (human, UniProt P25942 21-193, limits assumed); experiment: Biacore (SPR), sequential injections: CD40hFc captured, then soluble CD154 (ECD); concentrations not given (Example 10)
T4 construct: not shown: human Fc (hFc)
T4 sequence (P25942 21-193 limits assumed): as the sequence (P25942 21-193 limits assumed, one chain of several) above

IC50 of inhibition of ICAM-1 (CD54) upregulation on CD40-expressing Ramos B cells co-cultured with CD154-expressing D1.1 Jurkat cells [1]: 0.192 µg/mL | IC50 [2]: 0.006 µg/mL | Kd [3]: 0.015 nM
B1: anti-CD154 antibody 338 (Fab, V domains shown)
VH: QVQLTESGPGLVQPSQTLSLTCTVSGFSLTSHHISWVRQPPGKGLEWVGVMWNDGGTLYNSALKSRPSISRDTSKSQVFLKMSSLQTEDTATYYCARGKMHYYVLDAWGQGASVTVS
VL: DIQMTQSPASLSASLGETVTIECRTSEDIYSNLAWYRQRPGKSPQLLIYDTNRLADGVPSRFSGSGSGTQYSLKINSLQSEDVASYFCQHYSNFPWTFGGDTKLELK

IC50 of inhibition of ICAM-1 (CD54) upregulation on CD40-expressing Ramos B cells co-cultured with CD154-expressing D1.1 Jurkat cells [1]: 0.1 µg/mL | IC50 [2]: 0.022 µg/mL | Kd [3]: 0.005 nM
B2: anti-CD154 antibody 381 Fab′ (Fab, V domains shown)
VH: EVPLVESGGGLVQPGRSMKLSCVASGFTFSDYYMAWVRQAPKKGLEWVASISYEGSSTYYGDSVKGRFTVSRDIAKSTLYLQMHSLKSEDTAIYYCARHDDSPGYYFDYWGQGVMVTVS
VL: DIQMTQSPTSLSASLGETVSIECLAGEDISNVLAWYQQKSGGSPQLLIYAANRLQDGVPSRFSGSGSGTRYSLKISGMRPEDEADYFCQQTFRYPLTFGSGTKLELK

IC50 of inhibition of ICAM-1 (CD54) upregulation on CD40-expressing Ramos B cells co-cultured with CD154-expressing D1.1 Jurkat cells [4]: 0.04 µg/mL | binding result (CD40:sCD154 complex): no binding | EC50 (read off the curve) (Myc-tagged CD154): ~0.1 nM | IC50 [5]: 0.012 µg/mL | Kd [6]: 0.028 nM | IC50 [7]: 0.024 nM
B3: 342 Fab′ (Fab, V domains shown)
VH: EVQLVESGGGLVQPGGSLRLSCAVSGFSSTNYHVHWVRQAPGKGLEWMGVIWGDGDTSYNSVLKSRFTISRDTSKNTVYLQMNSLRAEDTAVYYCARQLTHYYVLAAWGQGTLVTVSS
VL: DIQMTQSPSSLSASVGDRVTITCRASEDLYYNLAWYQRKPGKAPKLLIYDTYRLADGVPSRFSGSGSGTDYTLTISSLQPEDFASYYCQQYYKFPFTFGQGTKVEIKR

Kd [8]: 0.00455 nM | koff [8]: 6.97e-05 s⁻¹ | kon [8]: 1.53e+07 M⁻¹ s⁻¹
B4: humanized 342 Fab, graft gL4gH1 (Fab, V domains shown)
VH: EVQLVESGGGLVQPGGSLRLSCAVSGFSSTNYHVHWVRQAPGKGLEWMGVIWGDGDTSYNSVLKSRFTISRDTSKNTVYLQMNSLRAEDTAVYYCARQLTHYYVLAAWGQGTLVTVSS
VL: DIQMTQSPSSLSASVGDRVTITCRASEDLYYNLAWYQRKPGKAPKLLIYDTYRLADGVPSRFSGSGSGTDYTLTISSLQPEDFASYYCQQYYKFPFTFGQGTKVEIKR

Binder: B5
binding result [9]: binds

IC50 of inhibition of ICAM-1 (CD54) upregulation on CD40-expressing Ramos B cells co-cultured with CD154-expressing D1.1 Jurkat cells [1]: 0.053 µg/mL | IC50 [2]: 0.008 µg/mL | Kd [3]: 0.016 nM
B6: chimeric 342 Fab′ (unlabeled 342 Fab′ of FIG. 29C) (Fab, V domains shown)
VH: QVQLKESGPGLVQPSETLSLTCTVSGFSSTNYHVHWVRQPPGKSLEWMGVIWGDGDTSYNSVLKSRLSITRDTSRSQVFLKMSSLQTEDTATYYCARQLTHYYVLAAWGQGASVTVS
VL: DIQMTQSPASLSASLGETVTVECRASEDLYYNLAWYQRKPGNSPQLLIYDTYRLADGVPSRFSGSGSGTQYSLKINTLPSGDVASYFCQQYYKFPFTFGSGTKLELK
notes: also called ch342 Fab
